# Literature values as cited in publication PMC5399307.
# Target: ezrin FERM (Homo sapiens) (UniProt P15311)
# Sequence of UniProt P15311 (P15311 1-299): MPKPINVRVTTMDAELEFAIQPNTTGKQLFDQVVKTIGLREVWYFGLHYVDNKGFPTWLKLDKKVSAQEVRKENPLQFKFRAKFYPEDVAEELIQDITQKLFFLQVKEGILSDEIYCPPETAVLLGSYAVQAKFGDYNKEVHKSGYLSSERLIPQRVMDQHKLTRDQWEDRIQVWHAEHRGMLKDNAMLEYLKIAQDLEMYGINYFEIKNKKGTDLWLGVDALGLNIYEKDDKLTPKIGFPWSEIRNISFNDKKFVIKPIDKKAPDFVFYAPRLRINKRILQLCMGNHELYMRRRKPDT
substance,measurement,value
NHERF1 (from UniProt O14745),Kd,51 nM
